B1: HDV Ribozyme (parent)
chain: GGCCGGCAUGGUCCCAGCCUCCUCGCUGGCGCCGGCUGGGCAACAUUCCGAGGGGACCGUCCCCUCGGUAAUGGCGAAUGGGACCCA

Variants of: B1
Assay: self-cleavage, relative activity (ratio to wild type); higher = more cleavage; co-transcriptional

Variant | self-cleavage
C18G C44G | 0.0723
G17U C84G | 0.439
C19G U37G | 0.111
C18A A77C | 0
C19G C41G | 0.0573
C19A U46A | 0.0707
C19A C49U | 0.185
C18G C75U | 0.0615
C18G C75A | 0
C18A G52U | 0.237
C18A G52A | 0.196
C19A A77G | 0.0302
C18U A56U | 0.745
C18U A56C | 0.628
C18U A56G | 0.719
G17C U65A | 0.353
G17C U65G | 0.249
C18A U27C | 0.135
C18A U27G | 0.115
C18A C49G | 0.119
C18A C49A | 0.111
C18G G50A | 0.138
C18G G50U | 0.196
C18G C64G | 0.156

Variant | self-cleavage
C18G C64U | 0.147
C18A C22A | 0.117
G17U U60C | 0.601
C19G G68C | 0.0875
C18A A45C | 0.208
C18U C32G | 0.032
C18U C24U | 0.141
C18U U20C | 0.0923
C18G G31A | 0.0811
C18A C26U | 0.312
C18A C26A | 0.244
C18A C26G | 0.119
C18G G28U | 0.0405
C18G A43U | 0.189
C19A G54U | 0.201
C19A G54C | 0.0817
C18A A78U | 0.128
C19A G67U | 0.281
C19A G67A | 0.0941
C18U C41U | 0.49
C19A A87C | 0.148
C19A A87G | 0.11
G17U G29A | 0.0314
C19G U47G | 0

Variant | self-cleavage
C18U A51G | 0.623
C19A G81U | 0.133
G17U G59A | 0.465
C19A U72A | 0.0504
G17U G38C | 0.0997
C18U U47G | 0.608
C18A C66G | 0.0639
C19G U46A | 0
C19G U46G | 0.107
C18A C57U | 0.086
C19G A42G | 0
C18A C33U | 0.0489
C18A G67C | 0.123
C18A G67U | 0.117
C19G C84U | 0.0504
C18G A87U | 0.154
C18G A87G | 0.12
C19G G28U | 0.208
C18U G74U | 0.166
C18U G74C | 0.0519
G17U C33G | 0.0831
G17U C33A | 0.143
C18G U60A | 0
C18G U60C | 0.0692

Variant | self-cleavage
C18U G28C | 0.089
C19G A56C | 0.0489
C18U U69C | 0.878
C18U U69A | 0.397
C19A A78G | 0.0845
C19A A78U | 0.138
C19A C33G | 0.0475
G17C U46G | 0.0923
C18A A56G | 0.162
C19G C86G | 0.104
C19G C86A | 0
C18A C32A | 0.106
C18U G81C | 0.136
C18U G81A | 0.265
C18G U79C | 0.0639
C18U G73C | 0.217
C18A C84U | 0.0997
C18A G59C | 0.0639
C18G G82U | 0.219
C19G G73C | 0.0244
G17U U79A | 0.755
G17U U79G | 0.406
G17U U79C | 0.584
C19G G25U | 0.0923

Variant | self-cleavage
C18A U69A | 0.19
C18G U65A | 0.138
C19A G40A | 0.109
G17U C48G | 0.482
G17U A56G | 0.609
C19A C48A | 0.0934
C19A C48G | 0.22
C19A C48U | 0.0683
C18G U47C | 0.185
C18U G68A | 0.739
C19A C63A | 0.153
C18U A43G | 0.17
C18U A43C | 0.295
G17U G39A | 0.128
C18A G28C | 0.095
C19G U20C | 0.0692
C19G C30G | 0.0739
C19G C30A | 0.0225
C18G C33A | 0
C18A U47G | 0
C19A G25A | 0.138
C18G C63G | 0.199
C18A C48G | 0.102
C18G C57U | 0.237

Variant | self-cleavage
C18G C57G | 0.133
C18A C61G | 0.172
C18A C61A | 0.0615
C18G G59C | 0.26
C18G U72A | 0
C19A C44G | 0.0615
C19G C85G | 0.111
C18G A78C | 0
C18G A78G | 0
C18U G55C | 0.893
C18U G82U | 0.111
C18U C58A | 0.612
C18G A71G | 0
C18G G55A | 0.145
G17C U27C | 0
C18A C75G | 0.133
C19G C62G | 0.0791
C18G A77G | 0.0755
C18G A77C | 0.178
C18U G80U | 0.0989
C18U G59C | 0.651
C18G C26G | 0.0831
C18G C26A | 0.175
C18A A70U | 0.0898

Variant | self-cleavage
C18U U27A | 0.95
C18U U27C | 0.268
C18G G73U | 0.119
C19A C22G | 0.155
C19A C22U | 0.0203
C18U A42C | 0.185
C19G C64A | 0.0528
C18A G40C | 0.162
C19A C58A | 0.095
G17U C63U | 0.47
C19A G35U | 0.115
C19A G35A | 0.111
G17U G55C | 0.453
G17U G55U | 0.415
G17U C86G | 0.583
C18U U46A | 0.291
C18A G29C | 0.266
C18A G29U | 0.821
C18G C32G | 0.107
C18A C85G | 0.0475
C18A A51C | 0.0755
C18U A78U | 0.0707
C18U A78G | 0.285
